43 variants from the Human Domainome abundance scans (Beltran et al. 2025) can be followed below.

± gives the uncertainty stated by the source.

The labels stand for the following.
B1: Kinesin-like protein KIF16B, residues 1213 to 1273; numbered along this chain, Q96L93 (parent)
chain: ETWTVFRRYSRFREMHKTLKLKYAELAALEFPPKKLFGNKDERVIAERRSHLEKYLRDFFS

The variants in the data set derive from B1. The data set is described as follows: abundance fitness (aPCA) (normalised: wild type 0, dead -1); higher = more abundant; growth selection in yeast, the domain comes from the species named. The conditions noted are these: Homo sapiens.
Regarding ETWTVFRRYSRFREMHKTLKLKYAELAALEFPPKKLFGNKDERAIAERRSHLEKYLRDFFS, the abundance fitness was determined as 0.029 ± 0.086.

In the case of ETWTVFRRYSRFREMHKTLKLKYAELAALEFPPKKLFGNKDERKIAERRSHLEKYLRDFFS, the abundance fitness was determined as 0.18 ± 0.2.

Consider ETWTVFRRYSRFREMHKTLKLKYAELAALEFPPKKLFGNKDEREIAERRSHLEKYLRDFFS, for which the abundance fitness was -0.145 ± 0.11.

For the variant ETWTVFRRYSRFREMHKTLKLKYAELAALEFPPKKLFGNKDERPIAERRSHLEKYLRDFFS, the abundance fitness is 0.299 ± 0.12.

For the variant ETWTVFRRYSRFREMHKTLKLKYAELAALEFPPKKLFGNKDERGIAERRSHLEKYLRDFFS, the abundance fitness is 0.188 ± 0.053.

Consider ETWTVFRRYSRFREMHKTLKLKYAELAALEFPPKKLFGNKDERCIAERRSHLEKYLRDFFS, for which the abundance fitness was found to be 0.316 ± 0.19.

ETWTVFRRYSRFREMHKTLKLKYAELAALEFPPKKLFGNKDERWIAERRSHLEKYLRDFFS: the abundance fitness came to 0.112 ± 0.1.

Take ETWTVFRRYSRFREMHKTLKLKYAELAALEFPPKKLFGNKDERDIAERRSHLEKYLRDFFS: the abundance fitness came out at 0.24 ± 0.19.

Take ETWTVFRRYSRFREMHKTLKLKYAELAALEFPPKKLFGNKDERSIAERRSHLEKYLRDFFS: the abundance fitness was 0.351 ± 0.086.

With ETWTVFRRYSRFREMHKTLKLKYAELAALEFPPKKLFGNKDERQIAERRSHLEKYLRDFFS, the abundance fitness was 0.047 ± 0.1.

Consider ETWTVFRRYSRFREMHKTLKLKYAELAALEFPPKKLFGNKDERNIAERRSHLEKYLRDFFS, for which the abundance fitness is -0.06 ± 0.13.

Take ETWTVFRRYSRFREMHKTLKLKYAELAALEFPPKKLFGNKDERYIAERRSHLEKYLRDFFS: the abundance fitness is -0.215 ± 0.34.

As for ETWTVFRRYSRFREMHKTLKLKYAELAALEFPPKKLFGNKDERTIAERRSHLEKYLRDFFS, the abundance fitness is 0.263 ± 0.16.

Consider ETWTVFRRYSRFREMHKTLKLKYAELAALEFPPKKLFGNKDERRIAERRSHLEKYLRDFFS, for which the abundance fitness was 0.117 ± 0.051.

On to ETWTVFRRYSRFREMHKTLKLKYAELAALEFPPKKLFGNKDWRVIAERRSHLEKYLRDFFS, for which the abundance fitness turned out to be 0.268 ± 0.094.

As for ETWTVFRRYSRFREMHKTLKLKYAELAALEFPPKKLFGNKDRRVIAERRSHLEKYLRDFFS, the abundance fitness was determined as 0.122 ± 0.044.

With ETWTVFRRYSRFREMHKTLKLKYAELAALEFPPKKLFGNKDVRVIAERRSHLEKYLRDFFS, the abundance fitness is -0.012 ± 0.069.

Take ETWTVFRRYSRFREMHKTLKLKYAELAALEFPPKKLFGNKDNRVIAERRSHLEKYLRDFFS: the abundance fitness came out at 0.306 ± 0.14.

For the variant ETWTVFRRYSRFREMHKTLKLKYAELAALEFPPKKLFGNKDKRVIAERRSHLEKYLRDFFS, the abundance fitness is 0.227 ± 0.1.

Turning to ETWTVFRRYSRFREMHKTLKLKYAELAALEFPPKKLFGNKDGRVIAERRSHLEKYLRDFFS, the abundance fitness came out at 0.266 ± 0.05.

For the variant ETWTVFRRYSRFREMHKTLKLKYAELAALEFPPKKLFGNKDARVIAERRSHLEKYLRDFFS, the abundance fitness is -0.011 ± 0.073.

As to ETWTVFRRYSRFREMHKTLKLKYAELAALEFPPKKLFGNKDLRVIAERRSHLEKYLRDFFS, the abundance fitness was found to be 0.164 ± 0.065.

ETWTVFRRYSRFREMHKTLKLKYAELAALEFPPKKLFGNKDDRVIAERRSHLEKYLRDFFS: the abundance fitness was -0.031 ± 0.1.

For ETWTVFRRYSRFREMHKTLKLKYAELAALEFPPKKLFGNKDIRVIAERRSHLEKYLRDFFS, the abundance fitness came out at 0.053 ± 0.17.

Turning to ETWTVFRRYSRFREMHKTLKLKYAELAALEFPPKKLFGNKDQRVIAERRSHLEKYLRDFFS, the abundance fitness is -0.056 ± 0.067.

On to ETWTVFRRYSRFREMHKTLKLKYAELAALEFPPKKLFGNKDTRVIAERRSHLEKYLRDFFS, for which the abundance fitness turned out to be 0.078 ± 0.11.

Take ETWTVFRRYSRFREMHKTLKLKYAELAALEFPPKKLFGNKDYRVIAERRSHLEKYLRDFFS: the abundance fitness was -0.242 ± 0.19.

In the case of ETWTVFRRYSRFREMHKTLKLKYAELAALEFPPKKLFGNKDCRVIAERRSHLEKYLRDFFS, the abundance fitness was found to be 0.044 ± 0.097.

Take ETWTVFRRYSRFREMHKTLKLKYAELAALEFPPKKLFGNKDSRVIAERRSHLEKYLRDFFS: the abundance fitness stood at 0.186 ± 0.078.

For the variant ETWTVFRRYSRFREMHKTLKLKYAELAALEFPPKKLFGNKDHRVIAERRSHLEKYLRDFFS, the abundance fitness is -0.476 ± 0.24.

In the case of ETWTVFRRYSRFREMHKTLKLKYAELAALEFPPKKLFGNKDFRVIAERRSHLEKYLRDFFS, the abundance fitness is 0.224 ± 0.11.

Take ETWTVFRRYSRFREMHKTLKLKYAELAALEFPPKKLFGNKFERVIAERRSHLEKYLRDFFS: the abundance fitness turned out to be 0.149 ± 0.099.

As for ETWTVFRRYSRFREMHKTLKLKYAELAALEFPPKKLFGNKAERVIAERRSHLEKYLRDFFS, the abundance fitness was determined as 0.154 ± 0.049.

Take ETWTVFRRYSRFREMHKTLKLKYAELAALEFPPKKLFGNKVERVIAERRSHLEKYLRDFFS: the abundance fitness stood at 0.159 ± 0.069.

As to ETWTVFRRYSRFREMHKTLKLKYAELAALEFPPKKLFGNKSERVIAERRSHLEKYLRDFFS, the abundance fitness came out at 0.065 ± 0.061.

Consider ETWTVFRRYSRFREMHKTLKLKYAELAALEFPPKKLFGNKHERVIAERRSHLEKYLRDFFS, for which the abundance fitness was -0.025 ± 0.22.

For the variant ETWTVFRRYSRFREMHKTLKLKYAELAALEFPPKKLFGNKWERVIAERRSHLEKYLRDFFS, the abundance fitness came out at 0.354 ± 0.059.

With ETWTVFRRYSRFREMHKTLKLKYAELAALEFPPKKLFGNKMERVIAERRSHLEKYLRDFFS, the abundance fitness turned out to be 0.231 ± 0.075.

For the variant ETWTVFRRYSRFREMHKTLKLKYAELAALEFPPKKLFGNKQERVIAERRSHLEKYLRDFFS, the abundance fitness is -0.064 ± 0.14.

As for ETWTVFRRYSRFREMHKTLKLKYAELAALEFPPKKLFGNKIERVIAERRSHLEKYLRDFFS, the abundance fitness stood at 0.394 ± 0.1.

Consider ETWTVFRRYSRFREMHKTLKLKYAELAALEFPPKKLFGNKPERVIAERRSHLEKYLRDFFS, for which the abundance fitness was -0.167 ± 0.11.

For the variant ETWTVFRRYSRFREMHKTLKLKYAELAALEFPPKKLFGNKKERVIAERRSHLEKYLRDFFS, the abundance fitness worked out at 0.028 ± 0.073.

For ETWTVFRRYSRFREMHKTLKLKYAELAALEFPPKKLFGNKTERVIAERRSHLEKYLRDFFS, the abundance fitness was -0.101 ± 0.12.
